The numbers were not newly measured in article PMC3968163, which cites them from elsewhere.

This series has as its target p53 TAD (Homo sapiens) (UniProt P04637). Briefly: ITC.

Chain of Tfb1 PH (P32776 1-115): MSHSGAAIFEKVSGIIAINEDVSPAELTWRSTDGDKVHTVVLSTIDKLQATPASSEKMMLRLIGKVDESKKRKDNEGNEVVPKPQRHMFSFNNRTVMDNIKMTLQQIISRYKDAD
Chain of p53 TAD (Homo sapiens) (P04637 20-73): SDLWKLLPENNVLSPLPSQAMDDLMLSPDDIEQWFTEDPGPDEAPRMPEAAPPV

The Kd is the free concentration of one partner at which half of the binding sites on the other are occupied at equilibrium, for simple one-to-one binding. Consider Tfb1 PH (from UniProt P32776), for which the Kd was 400 nM.
